Assay results as given in article PMC13017698.

Legend:
Test in all cases: SEC
[1] = molecular target: PahZ1Bfg, PahZ1 homolog from Brevifollis gellanilyticus (PahZ1-like domain fused to a CapA-like domain), residues 23-644 (Brevifollis gellanilyticus)
[2] = molecular target: PahZ1_(KT-1), poly(aspartic acid) hydrolase PahZ1 from Sphingomonas sp. KT-1 (Sphingomonas sp. KT-1)
[3] = molecular target: PahZ1_(Spyx), PahZ1 homolog from Sphingopyxis sp. Root1497, residues 21-313 (Sphingopyxis sp. Root1497)

“PahZ1Bfg, PahZ1 homolog from Brevifollis gellanilyticus (PahZ1-like domain fused to a CapA-like domain), residues 23-644 (enzyme)” was tested, and the stoichiometry N [1] was 2.

“PahZ1_(KT-1), poly(aspartic acid) hydrolase PahZ1 from Sphingomonas sp. KT-1 (enzyme)” was tested, and the stoichiometry N [2] was 2.

“PahZ1_(Spyx), PahZ1 homolog from Sphingopyxis sp. Root1497, residues 21-313 (enzyme)” was tested, and the stoichiometry N [3] was 2.
